Values quoted from earlier work in patent US4287185A, “Method for the detection of viruses” (Suntory Ltd., priority 1978, dated 1981).

Settings: mouse, in vivo

B1: neocarzinostatin (protein, UniProt P0A3R9 35-147, looked up)
Neocarzinostatin: AAPTATVTPSSGLSDGTVVKVAGAGLQAGTAYDVGQCAWVDTGVLACNPADFSSVTADANGSASTSLTVRRSFEGFLFDGTRWGTVDCTTAACQVGLSDAAGNGPEGVAISFN
notes: carcinostatic agent having 109 constituent amino acids, already put into clinical practice
For B1, the “LD50 compared with that of SP (about 3.5 mg/Kg)” value is given as “almost the same”.
